Source: article PMC5418627

Molecular target: T1, IRF3 (human (endogenous in HEK293T)), Q14653
T1 chain: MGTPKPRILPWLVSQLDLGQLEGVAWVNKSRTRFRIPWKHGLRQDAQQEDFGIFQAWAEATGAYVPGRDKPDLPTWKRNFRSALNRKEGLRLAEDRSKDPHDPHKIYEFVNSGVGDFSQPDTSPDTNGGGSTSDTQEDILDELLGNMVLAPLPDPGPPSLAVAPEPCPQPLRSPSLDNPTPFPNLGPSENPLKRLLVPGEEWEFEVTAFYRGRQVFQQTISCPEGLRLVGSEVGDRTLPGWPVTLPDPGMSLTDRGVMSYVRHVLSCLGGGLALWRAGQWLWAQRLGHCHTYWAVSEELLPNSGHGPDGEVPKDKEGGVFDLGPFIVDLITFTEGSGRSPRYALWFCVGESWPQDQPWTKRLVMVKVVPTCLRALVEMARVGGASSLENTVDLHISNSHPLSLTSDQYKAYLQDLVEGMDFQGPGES
Assay: native gel or EMSA; cell-free assay: HEK293T S1 crude lysate with vRNA, 30 °C, 1 h; Native-PAGE and immunoblotting of IRF3
Conditions: remark: other sources report otherwise

- stoichiometry N: 2
B1: IRF3, Q14653 1-427 (natural protein)
chain: T1 chain
